One block for each binder: values may come before it.
Tests used:
[1] = biological target: T1, human LAP-TGFβ1 overexpressed on cells (human, UniProt P01137 30-390); assay: flow cytometry; black bar HT1080-huB1, grey bar HT1080
T1 construct: HT1080 or P3U1 cells overexpressing wild-type human LAP-TGFβ1; also called HT1080-huB1; HT1080-hβ1

[2] = biological target: T1, human LAP-TGFβ1 overexpressed on cells; assay: flow cytometry; black bar HT1080-huB1, grey bar HT1080-null
[3] = biological target: T2, human GARP and human LAP-TGFβ1 co-expressed on P3U1 cells (human, UniProt Q14392 20-662); assay: flow cytometry competition with biotin-28G11 (0.31 µg) on P3U1 cells with human GARP and LAP-TGFβ1
T2 construct: whole, on cells; also called P3U1 cells over-expressing human GARP and LAP-TGFβ1
T2 sequence (chain, as listed by the source, chain 1 of 2): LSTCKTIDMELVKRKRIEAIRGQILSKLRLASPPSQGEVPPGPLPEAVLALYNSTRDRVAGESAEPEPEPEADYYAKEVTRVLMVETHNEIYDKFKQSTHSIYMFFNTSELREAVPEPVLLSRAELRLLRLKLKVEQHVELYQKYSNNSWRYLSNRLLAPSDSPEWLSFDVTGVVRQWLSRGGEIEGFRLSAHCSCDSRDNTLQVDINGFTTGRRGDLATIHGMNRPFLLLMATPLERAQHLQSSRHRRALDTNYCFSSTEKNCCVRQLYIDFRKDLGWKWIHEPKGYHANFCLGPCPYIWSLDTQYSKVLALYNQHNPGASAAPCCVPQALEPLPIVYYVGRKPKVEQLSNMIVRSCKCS
T2 sequence (Q14392 20-662, chain 2 of 2): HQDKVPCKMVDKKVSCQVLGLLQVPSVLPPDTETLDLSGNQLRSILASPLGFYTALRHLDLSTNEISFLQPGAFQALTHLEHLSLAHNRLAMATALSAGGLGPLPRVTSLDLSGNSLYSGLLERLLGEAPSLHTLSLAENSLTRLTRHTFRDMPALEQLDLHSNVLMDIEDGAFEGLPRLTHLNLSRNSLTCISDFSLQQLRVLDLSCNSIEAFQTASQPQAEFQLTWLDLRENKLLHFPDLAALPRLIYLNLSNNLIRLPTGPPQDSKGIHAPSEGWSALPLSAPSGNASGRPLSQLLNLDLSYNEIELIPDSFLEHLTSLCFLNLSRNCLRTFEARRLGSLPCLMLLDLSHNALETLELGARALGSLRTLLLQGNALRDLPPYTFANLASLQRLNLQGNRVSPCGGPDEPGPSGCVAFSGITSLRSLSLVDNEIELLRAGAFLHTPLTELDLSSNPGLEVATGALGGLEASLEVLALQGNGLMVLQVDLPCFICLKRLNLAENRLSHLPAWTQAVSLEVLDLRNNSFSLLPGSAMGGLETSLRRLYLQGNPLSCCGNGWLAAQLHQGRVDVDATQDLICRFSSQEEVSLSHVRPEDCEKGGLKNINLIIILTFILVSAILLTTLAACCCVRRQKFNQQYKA
Description: In the first experiment, the various humanized 28G11 candidates were tested for retention of binding to human LAP-TGFβ1 by competition with biotin-28G11 in a flow cytometry assay.
P3U1 cells over-expressing human GARP and LAP-TGFβ1 were placed in a round-bottom 96-well plate at density of 40,000 cells/well. The cells were washed with FACS buffer (25 mM HEPES, 2 mM EDTA, 2% fetal bovine serum in Hank's Balanced Salt Solution). 50 μL of 1:200 diluted TruStain Mouse FcX (BioLegend) was added to each well, followed by 50 μL of 100 ng/μL of humanized 28G11 construct (H0L0, H0L1, H0L2, H0L3, HILO, H1L1, H1L2, H1L3, H2L0, H2L1, H2L2, H2L3). The antibody was allowed to bind for 10 minutes. 50 μL of 6.2 ng/μL of biotinylated murine hybridoma 28G11_(hyb) was added to each well. The biotinylated antibody was allowed to bind for 10 minutes, and then the cells were washed twice with FACS buffer. The cells were labeled for 15 minutes with allophytocyanin-streptavidin (BioLegend), washed twice with FACS buffer, and analyzed by flow cytometry.

[4] = biological target: T3, LAP-TGFβ1 on THP-1 cells (Homo sapiens, UniProt P01137); assay: flow cytometry, THP-1 cells, % positive cells
T3 construct: cell surface, endogenous; also called LAP+ THP-1 cells
T3 sequence (P01137 30-390 limits assumed): as the sequence (chain, as listed by the source, chain 1 of 2) above
Description: Anti-LAP antibodies were tested for their ability to bind to THP-1 cells, a cell line derived from a patient with acute monocytic leukemia that is reported to express LRRC33. THP-1 cells were incubated with FACS buffer and human Fc block followed by incubation with varying concentrations of Alexa 647 conjugated 28G11_(hyb), 22F9_mIgG2a, 20E6_mIgG2a, 17G8_hIgG1, 24E3_hIgG1, 2C9_mIgG2a, or mIgG2a isotype control. Cells were analyzed by flow cytometry and graphed as percent positive THP-1 cells or median fluorescent intensity (MFI) of anti-LAP binding. As shown in FIGS. 10A and 10B, antibodies 22F9, 17G8, 24E3, 20E6, and 2C9 display strong binding to THP-1 cells. […] In another experiment, the binding of 20E6 mIgG2a and 7H4 hyb to THP-1 cells was compared using the methods described above. […] In a separate experiment THP-1 cells were incubated with FACS buffer and human Fc block followed by incubation with 5 ug/ml of Alexa 647 conjugated 28G11_hyb, 22F9_mIgG2a, 20E6_mIgG2a, 2C9_mIgG2a, or IgG2a isotype control. Cells were analyzed by flow cytometry and gated as single cells. Representative dot plots are shown in FIG. 10D; in these plots, antibodies were at 5 ug/ml.

T1 sequence (P01137 30-390): as the sequence (chain, as listed by the source, chain 1 of 2) above

- binding result [1]: binds
B1: 22F9_Y98R (antibody, human IgG1, kappa, V domains shown)
VH: QVQLVQPGAEVVKPGASVKLSCKASGYTFTSYWMHWVKQRPGQGLEWIGMIHPNSGSTNYNEKFKSKATLTVDKSSSTAYMELSSLRSEDTAVYYCARYDYDGFFDVWGQGTLVTVSS
VL: DIQLTQSPSSLSASVGDRVTITCRASKSVSTSGYSYMHWYQQKPGKAPKLLIYLASNLESGVPSRFSGSGSGTDFTLTISSLQPEDFATYYCQHSRELPYTFGGGTKVEIKR
notes: also called 22F9_H5L0 with VH Y98R

- binding result [3]: no binding (tested: 5 µg competitor)
B3: 28G11_H2L0 (antibody, human IgG1, kappa, V domains shown)
VH: EVQLVESGGGLVQPGGSLRLSCAASGFTFTDYYMSWVRQAPGKGLEWLGFIRNKPNGYTTEYSASVKGRFTISRDNSQSSLYLQMNSLKTEDTAVYYCARYTGGGYFDYWGQGTLLTVSS
VL: DIQMTQSPSSLSASVGDRVTITCRASQDISNYLNWYQQKPGKVPKLLIYYTSRLHSGVPSRFSGSGSGTDFTLTISSLQPEDVATYYCQQGDTLPWTFGQGTKLEIKR

The remaining lines, values behind:

B2: 20E6 H0.1 construct (antibody, human IgG1, kappa, V domains shown)
VH: QVQLVQSGAEVKKPGASVKVSCKASGYTFTSYWMHWVRQAPGQGLEWMGRIDPNSGGIKYAQKFQGRATLTVDTSTSTAYMELSRLRSDDTAVYYCARWDYGGYFDVWGQGTLVTVSS
VL: DIQMTQSPSSLSASVGDRVTITCRASQDITNYLNWYQQKPGKAVKLLIYYTSRLHSGVPSRFSGSGSGTDYTLTISSLQPEDFATYFCQQGDTLPWTFGQGTKLEIKR
- binding result [2]: binds

B4: 28G11_H0L3 (antibody, human IgG1, kappa, V domains shown)
VH: EVQLVESGGGLVQPGGSLRLSCAASGFTFSDYYMSWVRQAPGKGLEWVGFIRNKPNGYTTEYSASVKGRFTISRDDSKNSLYLQMNSLKTEDTAVYYCARYTGGGYFDYWGQGTLVTVSS
VL: DIQMTQSPSSLSASVGDRLTISCRASQDISNYLNWYQQKPGKTVKLLIYYTSRLHSGVPSRFSGSGSGTDYTLTISSLQPEDVATYFCQQGDTLPWTFGQGTKLEIKR
- binding result [3]: no binding (tested: 5 µg competitor)

B5: 7H4 (antibody, mouse IgG2b, kappa, V domains shown)
VH: DVQLQESGPGLVKPSQSLSLTCSVTGYSITSGYYWNWIRQFPGNKLEWMGYISYDGTNNYNPSLKNRISITRDTSKHQFFLKLNSVTTEDTATYYCARSFYNNYFDFWGQGTTLTVSS
VL: DIQMTQSPSSLSASLGGKVTITCKASQDIDKYIAWYQHKPGKGPRLLIHYTSTLQPGIPSRFSGSGSGRDYSFNISNLEPEDIATYYCLQYDNLRTFGGGTKLEIKR
notes: also called 7H4 hyb; 7H4_(hyb)
- binding result [4]: no binding (tested: 100 ug/ml)
